The results in this text go back to patent US8080523.

Read-outs that look alike come from different tables or passages of the source. A value given as a limit tells only on which side of the number the result lay.

Experiment [1] addresses Kv1.2. Nature of the experiment: patch-clamp, block of channel current. (Patch clamp records ionic current or voltage across a cell membrane.)
For experiment [2], the target named is Kv1.6. Nature of the experiment: patch-clamp, block of channel current.
Experiment [3] addresses Kv3.2. As to the kind of experiment: patch-clamp, block of channel current.
Experiment [4] concerns the target Kv1.2. Nature of the experiment: patch-clamp, ratio of Kd values; reference margatoxin on Kv1.3.
Experiment [5] concerns the target Kv1.6. The description is as above.
The target of experiment [6] is Kv3.2. Described as above.
Chain of Kv3.2 (P22462 whole entry): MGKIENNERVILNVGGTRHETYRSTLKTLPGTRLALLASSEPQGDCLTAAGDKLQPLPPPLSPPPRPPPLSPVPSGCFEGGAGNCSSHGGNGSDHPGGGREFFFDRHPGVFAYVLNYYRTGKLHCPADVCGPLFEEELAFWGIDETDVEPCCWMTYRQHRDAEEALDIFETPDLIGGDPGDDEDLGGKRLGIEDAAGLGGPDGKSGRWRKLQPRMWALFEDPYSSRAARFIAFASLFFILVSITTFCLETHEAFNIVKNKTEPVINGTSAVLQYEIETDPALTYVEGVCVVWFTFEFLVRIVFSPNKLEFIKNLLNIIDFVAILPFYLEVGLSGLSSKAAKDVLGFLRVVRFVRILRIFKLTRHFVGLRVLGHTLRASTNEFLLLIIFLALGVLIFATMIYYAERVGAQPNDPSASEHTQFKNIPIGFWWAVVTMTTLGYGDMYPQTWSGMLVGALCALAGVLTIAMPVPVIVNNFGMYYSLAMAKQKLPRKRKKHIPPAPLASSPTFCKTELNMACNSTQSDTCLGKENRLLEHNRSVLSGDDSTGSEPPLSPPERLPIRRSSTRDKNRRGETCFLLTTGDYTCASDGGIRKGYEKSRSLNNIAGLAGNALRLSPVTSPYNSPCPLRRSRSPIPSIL
In experiment [7] the target is Kv1.3 (cloned) (UniProt P16390).
The target is the same in experiment [8]. The source holds these as a separate data set.
For experiment [9], the target named is Kv1.1 (Mus musculus (Mouse)) (UniProt P16388). As to the kind of experiment: patch-clamp, ratio of Kd values; reference ShK(L6) on Kv1.3.
Chain of Kv1.1 (Mus musculus (Mouse)) (P16388 whole entry): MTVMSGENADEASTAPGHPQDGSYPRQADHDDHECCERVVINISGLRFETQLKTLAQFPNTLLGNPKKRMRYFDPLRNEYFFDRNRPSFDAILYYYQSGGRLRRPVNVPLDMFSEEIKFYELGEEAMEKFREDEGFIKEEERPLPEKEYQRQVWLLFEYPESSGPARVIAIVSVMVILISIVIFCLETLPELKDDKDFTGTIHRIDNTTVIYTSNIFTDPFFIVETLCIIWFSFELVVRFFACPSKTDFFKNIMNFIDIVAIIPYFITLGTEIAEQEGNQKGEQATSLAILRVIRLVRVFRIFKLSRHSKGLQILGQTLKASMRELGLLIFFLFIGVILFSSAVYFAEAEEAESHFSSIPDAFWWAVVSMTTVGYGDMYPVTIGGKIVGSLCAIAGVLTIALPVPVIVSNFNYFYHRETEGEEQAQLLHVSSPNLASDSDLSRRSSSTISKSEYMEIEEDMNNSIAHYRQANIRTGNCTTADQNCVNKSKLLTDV
The target of another experiment is Kv1.1 (UniProt P16388).
Chain of Kv1.1 (P16388 whole entry): as above

Chain of Kv1.6 (P17658 whole entry): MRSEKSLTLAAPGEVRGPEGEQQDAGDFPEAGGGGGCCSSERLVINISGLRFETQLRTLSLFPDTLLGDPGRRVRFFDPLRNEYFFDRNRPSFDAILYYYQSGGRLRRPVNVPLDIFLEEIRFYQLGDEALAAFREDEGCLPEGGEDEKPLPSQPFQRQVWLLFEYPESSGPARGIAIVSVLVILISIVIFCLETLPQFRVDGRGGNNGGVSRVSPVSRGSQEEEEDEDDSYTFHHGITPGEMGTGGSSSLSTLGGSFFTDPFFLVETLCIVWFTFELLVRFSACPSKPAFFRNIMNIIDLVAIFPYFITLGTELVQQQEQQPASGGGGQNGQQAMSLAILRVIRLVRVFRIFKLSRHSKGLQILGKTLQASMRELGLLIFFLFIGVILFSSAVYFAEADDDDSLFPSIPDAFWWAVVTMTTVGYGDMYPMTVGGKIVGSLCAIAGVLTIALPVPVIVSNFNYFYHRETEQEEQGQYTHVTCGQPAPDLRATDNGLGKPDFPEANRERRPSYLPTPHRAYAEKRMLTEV
Chain of Kv1.2 (P63142 whole entry): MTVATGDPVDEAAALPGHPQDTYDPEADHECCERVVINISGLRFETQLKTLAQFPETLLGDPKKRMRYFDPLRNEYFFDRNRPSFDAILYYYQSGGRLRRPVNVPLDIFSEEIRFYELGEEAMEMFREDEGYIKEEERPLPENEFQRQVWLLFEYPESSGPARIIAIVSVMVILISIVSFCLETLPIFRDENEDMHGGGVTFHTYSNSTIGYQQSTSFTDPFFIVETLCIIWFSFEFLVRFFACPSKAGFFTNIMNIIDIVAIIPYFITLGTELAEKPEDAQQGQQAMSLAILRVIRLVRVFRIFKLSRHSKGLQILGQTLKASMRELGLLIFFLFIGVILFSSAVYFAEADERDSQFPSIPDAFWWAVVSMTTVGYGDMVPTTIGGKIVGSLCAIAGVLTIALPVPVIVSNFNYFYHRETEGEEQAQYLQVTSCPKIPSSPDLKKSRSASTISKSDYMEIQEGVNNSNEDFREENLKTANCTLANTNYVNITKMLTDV

Usually Kd stands for a measure of binding affinity in units of concentration. A higher Kd goes with weaker binding. Turning to “Margatoxin (from UniProt P40755 1-39) (peptide)”, the values for the Kd with Kv1.2 [1], with Kv1.6 [2] and in the experiment with Kv3.2 [3] were 0.52 nM, greater than 100 nM and greater than 100 nM, respectively. Also, the results for the fold selectivity for Kv1.3 over this channel with Kv1.2 [4], with Kv1.6 [5] and with Kv3.2 [6] were 5 fold, greater than 1000 fold and greater than 1000 fold, respectively.

For the substance ShK toxin (peptide), the Kd in the experiment with Kv1.2 [1] amounted to 10 nM; with Kv1.6 [2] it was 0.2 nM; with Kv3.2 [3], 5 nM.

Turning to ShK(D5), in the experiment with Kv1.3 (cloned) [7], the Kd was 1.1 nM.

With ShK(L6), in the experiment with Kv1.3 (cloned) [8], the Kd came to 0.01 nM.

Regarding ShK(L6) (peptide), the fold selectivity for Kv1.3 over this channel in experiment [9] was determined as 11 fold.

In the experiment with Kv1.1, ShK-F6CA yielded a Kd of 4 nM. This counts as single-digit nanomolar.
